From the RNAGym collection of RNA variant scans (doi:10.1021/acssynbio.7b00057)

B1: Pistol ribozyme (parent)
chain: GGGUCGUUGUUCCAUAAUCGCGUGGAUAUGGCACGCAAGUUUCUACCGGGCACCGUAAAUGUCCGACUGGAGCCGUUCGGGCGGCUAUAAACAGACCUCAGGCCCGAAGCGUGGCGGCACCUGCCGCCGGUGGUAAAAAAGAUCGGAAGAGCACACGUCU

Variants of: B1
Assay: aptazyme ON/OFF ratio, guanine; higher = stronger switching; co-transcriptional cleavage with and without guanine

Point of comparison: U7A U8C G9A U10G U11A, “aptazyme ON/OFF ratio” value 1.03. Against it:
- U7C U8G G9U U11G C12G — higher, 1.35
- U7C U8G G9U U10C C12G C13A — higher, 1.28
- U8C G9C U10C U11C C12G C13G — higher, 1.09
- U7A U8C G9A U10C U11G — higher, 1.16
- U7C G9C U10A U11C — higher, 1.04
- U7C U10G C12G — higher, 1.18
- U7C U8G G9C U11C C12U C13A — higher, 1.15
- U7G U8A G9A U10G U11C C13A — higher, 1.09
- U7C G9A U10A C12G C13A — higher, 1.35
- U7C U8C U10G U11C C12G C13U — higher, 1.17
- U7C U8G G9C U10C U11A — lower, 0.99
- U7G U8C G9U U10C U11A C12A C13G — higher, 1.31
- U7A U8C U10A U11C C12U C13A — higher, 1.07
- U7G G9U U10G U11A C12G — higher, 1.26
- U7C G9U U10C U11A C12U — higher, 1.19
- U7C U8G G9C U10A U11C C13U — lower, 1.01
- U7A U8C G9A U10G U11G C12U — higher, 1.39
- U7G U8G G9C U10A U11G C12U C13U — higher, 1.05
- G9A U10C C12U C13G — higher, 1.27
- U7A U8G G9A U10G U11A C13G — higher, 1.16
- U8A G9A U10A U11A C12G — higher, 1.24
- U7C U8G G9C U10G — higher, 1.47
- U8A G9A U10A U11G C12A C13G — higher, 1.18
- U7A U8C G9A U10G U11C C12A C13U — higher, 1.23
- U7A G9C U11G C12G — higher, 1.36
- U7G U8G G9A U10G U11G C12G C13G — higher, 1.25
- U7G G9C U11A C12G — higher, 1.65
- U7G U8C G9U U10A C13U — higher, 2.29
- U7G U8G C12G C13U — higher, 1.37
- U7C U8C G9U U10C C12G C13U — higher, 1.13
- U10A U11A C13A — higher, 1.31
- U7G U8G G9C U10A C12G C13A — higher, 1.05
- U7G U8A G9A U10G U11G C13G — higher, 1.34
- U7A G9U U10C U11C C12U — the same, 1.03
- G9C U11G C13A — higher, 1.23
- U7C U8C G9U U11A C12G — higher, 1.18
- U7A U8C G9A U10A U11C C12G — higher, 1.21
- U7C U8G G9C U10C U11C C12A C13A — the same, 1.03
- U7C U8G U10C U11G C13U — higher, 2.15
- U7A U8C U10A U11G — higher, 1.17
- U7G G9A U10C U11C C12G C13G — higher, 1.05
- U7C U8C U10A U11A C13A — higher, 1.26
- U7A U8C G9C U10C C13U — higher, 1.06
- U7C G9U U10G U11C C12A C13G — higher, 1.17
- U7A U8C G9U U10C U11A C12G C13A — higher, 1.11
- U8G G9A U11G C12G C13U — higher, 1.23
- U7A U8C G9C U10A U11C C12U C13U — higher, 1.22
- U7G U8G G9U U11A C12G C13U — higher, 1.16
- U7A U8G C12U — higher, 1.61
- U7A U8G G9C U10A U11C C13G — higher, 1.04
- U7G G9U U11C C12G C13G — higher, 1.26
- U8G U10C C13A — higher, 1.05
- U8C C12G C13A — higher, 1.19
- U7C U8C G9C U10C U11G C12G — higher, 1.13
- U7A U8G G9A U10C U11G C12A C13G — higher, 1.19
- G9U U10C U11C C12U C13A — higher, 1.11
- U7C G9A C12A C13U — higher, 1.25
- U7C U8C U10C U11C C12G C13G — higher, 1.3
- U7A U8C G9C U10A U11G C12G C13A — higher, 1.08
- U7G U8A G9A U11C C12G C13U — higher, 1.1
- U7G U8A G9C U10A C13U — lower, 1.02
- U7C U8C G9C U10A U11A C12U C13G — higher, 1.2
- U8G G9U U10G U11C C12G C13A — higher, 1.04
- U8A G9C U10A U11C C12A C13G — higher, 1.12
- U8A G9U U10G C12G — higher, 1.13
- U8A U10G U11G C12A C13G — higher, 1.15
- U7A U8G U10A C13G — higher, 1.26
- U7G U8A G9A U10C U11C C12U C13A — higher, 1.08
- G9U U11G C12A C13A — higher, 1.31
- U7C U8C G9A U10C C12A C13U — higher, 1.21
- U8G G9U U10C U11A C12G C13A — higher, 1.08
- U7C U8G U10G U11A C12G C13G — higher, 1.21
- U7A G9U U10A C12A C13G — higher, 1.07
- U7G U8G G9U U10A U11C C13A — higher, 1.11
- U7C U10A U11G C12A C13G — lower, 0.975
- U7C U8G G9U U10G U11G C13G — higher, 1.06
- U7C G9C U10C U11C C13U — lower, 1.01
- U7C U8G U11A C12A — higher, 1.14
- U7C U8A G9A U11C C12G C13U — higher, 1.18
- U7G U8G U10A U11G C13A — higher, 1.18
- U7C G9A U10G U11G C13A — higher, 1.24
- U7C G9C U10C U11A C12A C13U — higher, 1.05
- U8G G9A U10A U11A C12G C13U — higher, 1.27
- U7G U10A U11G C12G C13A — higher, 1.18
- U7C U8A G9U U10C C13G — higher, 1.07
- U7G U8C G9U U10C C12U C13A — higher, 1.35
- U7G U8G G9A U10C — higher, 3.59
- U8G G9A U10G U11A C12U C13A — higher, 1.34
- U7G U8G U10A U11C C12A — higher, 1.4
- U7G U8A U10C U11G C13G — higher, 1.26
- U7G U8A U11C C12G C13U — higher, 1.32
- U7C U8G G9C U10C U11G C13A — higher, 1.11
- G9C U10A U11A C13G — higher, 1.05
- U7C U10G C12U — higher, 1.32
- G9U U10G C12G C13U — higher, 1.23
- U7G U8C G9U U11C C12G C13A — higher, 1.3
- U7A U8G U10G U11A C12G C13U — higher, 1.46
- U8G U11A C12U — higher, 1.46
- U7G U8A G9C U10C U11G C13A — higher, 1.04
- U7A U8G G9C U11A C12U C13G — higher, 1.37
- U7C U8A G9A U10G C13G — higher, 1.08
- U7G U10C C12G C13G — higher, 1.04
- U7A U8A G9U U10A U11C C12G C13A — higher, 1.18
- U7C U8A G9C U10G U11G C12G C13U — higher, 1.09
- U8G G9C C13G — the same, 1.03
- U7C G9A U10G U11C C12G C13A — higher, 1.19
- U7C U8C U10G C12A C13U — higher, 1.12
- U7G U8C G9U U10C U11A C12U C13G — higher, 1.39
- U7A U8A U10A C13G — higher, 1.06
- U7A U8G G9C U10C U11C C12A C13U — higher, 1.04
- U7G U8C G9C U10G U11A C12A — higher, 1.28
- U7C U8A G9C U11G C12A C13G — higher, 1.15
- U7A G9U U11C C13U — higher, 1.12
- G9U U10G U11C C13G — higher, 1.1
- U8G G9C U10G U11C C12U — the same, 1.03
- U7G U8A U11A C12U — higher, 1.43
- U7G U8A G9A U10A C12G — higher, 1.19
- U8A U10G U11G C12A C13A — higher, 1.18
- U7A U8C G9U U10G U11G C12U C13A — higher, 1.07
- G9U U10G C12U — higher, 1.62
- U7A G9C U11C C12G C13A — higher, 1.07
- U7C U8G U10C U11C C12G C13G — higher, 1.13
- U8G G9A U11C C12U C13G — higher, 1.27
- U7G U8A G9U U10C C12U C13U — the same, 1.03
- U7G U8G G9U U11C C13G — higher, 1.1
- U8A G9C U10A U11G C12A C13G — higher, 1.26
- U8A G9U U10G U11C C12G C13G — higher, 1.07
- U7G U8C U10A U11G C12A C13A — higher, 1.08
- U7A U8A G9C U10C U11G — lower, 0.815
- U7A U8G G9C U10A U11A C12G C13U — higher, 1.38
- U7A U8C G9U U11A C12A — higher, 1.32
- U7C U8C G9A U10G C12G C13U — higher, 1.16
- U7A G9C U10A U11G C12A — higher, 1.04
- U7C G9A U10C U11C C13U — the same, 1.03
- U7C U8C G9A U10G U11G C12U C13U — higher, 1.14
- U8C U10C U11A C12G C13A — higher, 1.2
- U8G G9C U10G C12A C13G — higher, 1.09
- U7G U8A G9A U11A — higher, 1.45
- U7A U8C G9A U10C U11C C13U — lower, 1.02
- U7A U8G G9U U10C U11C C13A — higher, 1.04
- U8A G9U U11G C12U C13G — higher, 1.19
- U7A U8G G9U U10A U11C C13A — lower, 1.02
- U7G G9U U10A C12A C13U — higher, 1.75
- U7G U8G G9A U10G U11A C12G — higher, 1.15
- U7C U8C U10C U11G C12U — higher, 1.2
- U7G G9C C12U C13U — higher, 1.33
- U8G G9C U10A U11C C13A — higher, 1.04
- U7G U8C G9A U10C C12G C13U — higher, 1.28
- U7A G9U U11A C12A C13G — higher, 1.16
- G9U U10C C12U — higher, 1.71
- U7A U8C G9U U10A U11A C13U — higher, 1.16
- U7C U8G G9A U10A C12U C13A — higher, 1.18
- U7A U8C G9A U10C U11A — higher, 1.24
- U7C U8G G9A U10G U11G C12A C13U — higher, 1.12
- U7C U8G G9U U10C U11C C12U C13A — higher, 1.05
- U7G G9C U10A U11G — higher, 3.08
- U8C G9U U10C U11A C13G — higher, 1.05
- U7C U8C G9U U10C U11G C12A C13U — higher, 1.12
- U7G U10A C12G C13G — higher, 1.2
- U7G G9U U10A U11G C13U — higher, 1.29
- U8A G9C U10A U11C C12G C13A — higher, 1.13
- U7A U8C G9U U10C U11C C12A C13G — higher, 1.18
- U8G G9U U10G U11A C13G — higher, 1.04
- U7A U8A U10C C12A C13U — higher, 1.18
- U7C U8A G9U U11A — higher, 1.08
- U7G G9U U11C C12U C13G — higher, 1.3
